Laboratory results reported in patent US20260085105A1 (Amgen, published 2026).

How the values were obtained:
[1] = biological target: T1, MAGE-A4 (100% identical in MAGEA8) peptide on HLA-A*02:01 (human); experiment: multimer staining
T1 peptide: KVLEHVVRV

[2] = biological target: T2, GPC5 peptide on HLA-A*02:01 (human); experiment: killing
T2 peptide: KLLEQVNRI

[3] = biological target: T3, KIAA1033 peptide on HLA-A*02:01 (human); experiment: killing
T3 peptide: KVLNKVITV

[4] = biological target: T4, PSME2 peptide on HLA-A*02:01 (human); experiment: killing
T4 peptide: KVLERVNAV

[5] = biological target: T5, TSC1 peptide on HLA-A*02:01 (human); experiment: killing
T5 peptide: SLLGHVIRL

[6] = biological target: T6, PTRF peptide on HLA-A*02:01 (human); experiment: killing
T6 peptide: KLLEKVRKV

[7] = biological target: T7, MADD peptide on HLA-A*02:01 (human); experiment: killing
T7 peptide: ILLEHKVVL

[8] = biological target: T8, RG1L peptide on HLA-A*02:01 (human); experiment: killing
T8 peptide: FLLETVVRV

[9] = biological target: T9, MIA3 peptide on HLA-A*02:01 (human); experiment: killing
T9 peptide: KVLDKVFRA

[10] = biological target: T10, CNOT1 peptide on HLA-A*02:01 (human); experiment: killing
T10 peptide: KVLGIVVGV

[11] = biological target: T11, HNRNPR peptide on HLA-A*02:01 (human); experiment: killing
T11 peptide: KVWGNVVTV

[12] = biological target: T12, HERC4 peptide on HLA-A*02:01 (human); experiment: killing
T12 peptide: KVLEILHRV

[13] = biological target: T13, HTR5A peptide on HLA-A*02:01 (human); experiment: killing
T13 peptide: KVLETLVTV

[14] = biological target: T14, ANO5 peptide on HLA-A*02:01 (human); experiment: killing
T14 peptide: IVMEHVVFL

[15] = biological target: T15, GRP78 peptide on HLA-A*02:01 (human); experiment: killing
T15 peptide: KVTHAVVTV

[16] = biological target: T16, SYNE3 peptide on HLA-A*02:01 (human); experiment: killing
T16 peptide: KLLDLQVRV

[17] = biological target: T17, TRMT1L peptide on HLA-A*02:01 (human); experiment: killing
T17 peptide: VALEHFVLV

[18] = biological target: T18, TP2 peptide on HLA-A*02:01 (human); experiment: killing
T18 peptide: KILEDVVGV

[19] = biological target: T19, AXIN1 peptide on HLA-A*02:01 (human); experiment: killing
T19 peptide: ILDEHVQRV

[20] = biological target: T20, ATAD2 peptide on HLA-A*02:01 (human); experiment: killing
T20 peptide: KILEALQRV

[21] = biological target: T21, NSD1 peptide on HLA-A*02:01 (human); experiment: killing
T21 peptide: KVQEQVHKV

[22] = biological target: T22, MAGE-A4 peptide on HLA-A*02:01 (human); experiment: multimer staining
T22 peptide: GVYDGREHTV

[23] = biological target: T23, DPYSL2 peptide on HLA-A*02:01 (human); experiment: killing
T23 peptide: GLYDGPVCEV

[24] = biological target: T24, UTRN peptide on HLA-A*02:01 (human); experiment: killing
T24 peptide: NQWDGTQHGV

[25] = biological target: T25, KEAP1 peptide on HLA-A*02:01 (human); experiment: killing
T25 peptide: GVIDGHIYAV

[26] = biological target: T26, CDNP2 peptide on HLA-A*02:01 (human); experiment: killing
T26 peptide: GVYGGSVHEA

[27] = biological target: T27, VPS13B peptide on HLA-A*02:01 (human); experiment: killing
T27 peptide: GLMDGSPHFL

[28] = biological target: T28, PGRMC1 peptide on HLA-A*02:01 (human); experiment: killing
T28 peptide: LLKEGEEPTV

[29] = biological target: T29, AK2 peptide on HLA-A*02:01 (human); experiment: killing
T29 peptide: FLLDGFPRTV

[30] = biological target: T30, OSBPL10 peptide on HLA-A*02:01 (human); experiment: killing
T30 peptide: SQYSGQLHEV

[31] = biological target: T31, IMPDH1 peptide on HLA-A*02:01 (human); experiment: killing
T31 peptide: IIADGGIQTV

[32] = biological target: T32, COX14 peptide on HLA-A*02:01 (human); experiment: killing
T32 peptide: TVYGGYLCSV

[33] = biological target: T33, DPYSL4 peptide on HLA-A*02:01 (human); experiment: killing
T33 peptide: GLYDGPVHEV

[34] = biological target: T34, ACTB peptide on HLA-A*02:01 (human); experiment: killing
T34 peptide: DSGDGVTHTV

[35] = biological target: T35, DDAH peptide on HLA-A*02:01 (human); experiment: killing
T35 peptide: VLFTGREFFV

[36] = biological target: T36, FAS peptide on HLA-A*02:01 (human); experiment: killing
T36 peptide: ALLDGRLQVV

[37] = biological target: T37, PLD4 peptide on HLA-A*02:01 (human); experiment: killing
T37 peptide: GLFDGVPTTA

[38] = biological target: T38, STXBP5 peptide on HLA-A*02:01 (human); experiment: killing
T38 peptide: YTYDEAIHSV

[39] = biological target: T39, ATOH8 peptide on HLA-A*02:01 (human); experiment: killing
T39 peptide: VLEDGPWKTV

[40] = biological target: T40, XIAP peptide on HLA-A*02:01 (human); experiment: killing
T40 peptide: FLYTGEGTV

[41] = biological target: T41, MYOF peptide on HLA-A*02:01 (human); experiment: killing
T41 peptide: FFVYDEPGHAV

[42] = biological target: T42, DYNC1H1 peptide on HLA-A*02:01 (human); experiment: killing
T42 peptide: FLSDPQVHTV

… (MAGEA8)/HLA-A*02:01 = … (MAGEA8)/HLA-A*02:01 (human); experiment: cell-based or functional assay

B1: TCR6 of Tables 1A and 1B (TCR7 of the examples) (TCR, V domains shown)
Valpha: AQTVTQSQPEMSVQEAETVTLSCTYDTSENNYYLFWYKQPPSRQMILVIRQEAYKQQNATENRFSVNFQKAAKSFSLKISDSQLGDTAMYFCAFVDSGYALNFGKGTSLLVTP
Vbeta: DVKVTQSSRYLVKRTGEKVFLECVQDMDHENMFWYRQDPGLGLRLIYFSYDVKMKEKGDIPEGYSVSREKKERFSLILESASTNQTSMYLCASSLDGARTQYFGPGTRLTVL
- binding result [1]: recognises
- binding result [2]: no recognition
- binding result [3]: no recognition
- binding result [4]: no recognition
- binding result [5]: no recognition
- binding result [6]: no recognition
- binding result [7]: no recognition
- binding result [8]: no recognition
- binding result [9]: no recognition
- binding result [10]: no recognition
- binding result [11]: no recognition
- binding result [12]: no recognition
- binding result [13]: no recognition
- binding result [14]: no recognition
- binding result [15]: no recognition
- binding result [16]: no recognition
- binding result [17]: no recognition
- binding result [18]: no recognition
- binding result [19]: no recognition
- binding result [20]: no recognition
- binding result [21]: no recognition

B2: TCR8 of Tables 1A and 1B (printed TCR18) (TCR, V domains shown)
Valpha: KQEVTQIPAALSVPEGENLVLNCSFTDSAIYNLQWFRQDPGKGLTSLLLIQSSQREQTSGRLNASLDKSSGRSTLYIAASQPGDSATYLCAVDAHARLMFGDGTQLVVKP
Vbeta: EPEVTQTPSHQVTQMGQEVILRCVPISNHLYFYWYRQILGQKVEFLVSFYNNEISEKSEIFDDQFSVERPDGSNFTLKIRSTKLEDSAMYFCASISGEQYFGPGTRLTVT
- binding result [22]: recognises
- binding result [23]: no recognition
- binding result [24]: no recognition
- binding result [25]: no recognition
- binding result [26]: no recognition
- binding result [27]: no recognition
- binding result [28]: no recognition
- binding result [29]: no recognition
- binding result [30]: no recognition
- binding result [31]: no recognition
- binding result [32]: no recognition
- binding result [33]: no recognition
- binding result [34]: no recognition
- binding result [35]: no recognition
- binding result [36]: no recognition
- binding result [37]: no recognition
- binding result [38]: no recognition
- binding result [39]: no recognition
- binding result [40]: no recognition
- binding result [41]: no recognition
- binding result [42]: no recognition

B3: TCR4 (TCR10) (TCR, V domains shown)
Valpha: LAKTTQPISMDSYEGQEVNITCSHNNIATNDYITWYQQFPSQGPRFIIQGYKTKVTNEVASLFIPADRKSSTLSLPRVSLSDTAVYYCLVGGDEDMRFGAGTRLTVKP
Vbeta: EAGVAQSPRYKIIEKRQSVAFWCNPISGHATLYWYQQILGQGPKLLIQFQNNGVVDDSQLPKDRFSAERLKGVDSTLKIQPAKLEDSAVYLCASSLEYGPTYEQYFGPGTRLTVT
- binding result [1]: recognises
- binding result [2]: no recognition
- binding result [3]: no recognition
- binding result [4]: no recognition
- binding result [5]: no recognition
- binding result [6]: no recognition
- binding result [7]: no recognition
- binding result [8]: no recognition
- binding result [9]: no recognition
- binding result [10]: no recognition
- binding result [11]: no recognition
- binding result [12]: no recognition
- binding result [13]: no recognition
- binding result [14]: no recognition
- binding result [15]: no recognition
- binding result [16]: no recognition
- binding result [17]: no recognition
- binding result [18]: no recognition
- binding result [19]: no recognition
- binding result [20]: no recognition
- binding result [21]: no recognition

B4: TCR18 (running number 7 of Table 1A) (TCR, V domains shown)
V domain 1: AQTVTQSQPEMSVQEAETVTLSCTYDTSENNYYLFWYKQPPSRQMILVIRQEAYKQQNATENRFSVNFQKAAKSFSLKISDSQLGDTAMYFCALLDSGNTPLVFGKGTRLSVIA
V domain 2: NAGVTQTPKFRILKIGQSMTLQCAQDMNHNYMYWYRQDPGMGLKLIYYSVGAGITDKGEVPNGYNVSRSTTEDFPLRLELAAPSQTSVYFCASSYTNNEQFFGPGTRLTVLE
- fold difference in EC50 between the MAGEA4 and MAGEA8 peptides, TDCC on peptide-loaded T2 cells (… (MAGEA8)/HLA-A*02:01): > 1000 fold

B5: TCR7 of Tables 1A and 1B (TCR18) (TCR, V domains shown)
Valpha: AQTVTQSQPEMSVQEAETVTLSCTYDTSENNYYLFWYKQPPSRQMILVIRQEAYKQQNATENRFSVNFQKAAKSFSLKISDSQLGDTAMYFCALLDSGNTPLVFGKGTRLSVIA
Vbeta: NAGVTQTPKFRILKIGQSMTLQCAQDMNHNYMYWYRQDPGMGLKLIYYSVGAGITDKGEVPNGYNVSRSTTEDFPLRLELAAPSQTSVYFCASSYTNNEQFFGPGTRLTVL
- binding result [22]: recognises
- binding result [23]: no recognition
- binding result [24]: no recognition
- binding result [25]: no recognition
- binding result [26]: no recognition
- binding result [27]: no recognition
- binding result [28]: no recognition
- binding result [29]: no recognition
- binding result [30]: no recognition
- binding result [31]: no recognition
- binding result [32]: no recognition
- binding result [33]: no recognition
- binding result [34]: no recognition
- binding result [35]: no recognition
- binding result [36]: no recognition
- binding result [37]: no recognition
- binding result [38]: no recognition
- binding result [39]: no recognition
- binding result [40]: no recognition
- binding result [41]: no recognition
- binding result [42]: no recognition
